From publication PMC6743362

Biological target: microtubules (MT fraction from mouse brain) (mouse (endogenous in mouse brain)) (UniProt P68369)
Assay: co-sedimentation

Substance	MT-bound fraction	MT-unbound fraction
recombinant human tau lacking both PRR2 and MTBD (ΔPRR2-MTBD) (from UniProt P10636-6 1-383) (natural protein)	0.059	0.941
recombinant human tau lacking the proline-rich region 2 (ΔPRR2) (from UniProt P10636-6 1-383) (natural protein)	0.839	0.161
recombinant human tau, 0N4R variant (WT tau) (from UniProt P10636-6 1-383) (natural protein)	0.989	
